Measurements reported in the supplement of paper PMC7125110.
± gives the standard error. For some of these results: Variants at the floor of the assay were thinned out.

B1: glmS ribozyme (parent)
chain: AUAAAAGCGCCAGAACUACAGAAAUGUAGUUGACGAGGAGGAGGUUUAUCGAAUUUUCGGCGGAUGCCUCCAAA

Key:
Conditions in all cases: with glucosamine-6-phosphate
[1] = variants of: B1; test: kcat; higher = faster cleavage; RNA array
Procedure, shortened: (§1)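 A hybridised Cy3 probe tracked barcoded ribozyme variants, transcribed in situ by E. coli RNA polymerase on sequenced MiSeq chips, at 37 °C. The variants received 40 μM to 10 mM glucosamine-6-phosphate in HEPES/KCl/Mg(OAc)2 buffer. kobs came from decay fits and kcat and KM from weighted Michaelis–Menten fits.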

[2] = variants of: B1; test: KM; higher = weaker cofactor use; RNA array
Procedure, shortened: as §1

[3] = variants of: B1; test: self-cleavage kobs at 40 uM GlcN6P; higher = faster cleavage; RNA array
Procedure, shortened: as §1

[4] = variants of: B1; test: self-cleavage kobs at 160 uM GlcN6P; higher = faster cleavage; RNA array
Procedure, shortened: as §1

[5] = variants of: B1; test: self-cleavage kobs at 640 uM GlcN6P; higher = faster cleavage; RNA array
Procedure, shortened: as §1

[6] = variants of: B1; test: self-cleavage kobs at 2500 uM GlcN6P; higher = faster cleavage; RNA array
Procedure, shortened: as §1

[7] = variants of: B1; test: self-cleavage kobs at 10000 uM GlcN6P; higher = faster cleavage; RNA array
Procedure, shortened: as §1

| Variant | kcat [1] [s⁻¹] | KM [2] [µM] | self-cleavage kobs at 40 uM GlcN6P [3] [s⁻¹] | self-cleavage kobs at 160 uM GlcN6P [4] [s⁻¹] | self-cleavage kobs at 640 uM GlcN6P [5] [s⁻¹] | self-cleavage kobs at 2500 uM GlcN6P [6] [s⁻¹] | self-cleavage kobs at 10000 uM GlcN6P [7] [s⁻¹] |
| --- | --- | --- | --- | --- | --- | --- | --- |
| U54A C70A | 0.000115 ± 1.2e-05 | 42.6 ± 17 | 5.92e-05 ± 7.9e-06 | 7.42e-05 ± 1.3e-05 | 0.000107 ± 1.4e-05 | 0.000122 ± 1.5e-05 |  |
| A52C U54A | 1.15e-05 ± 1.5e-06 | 368 ± 130 |  |  |  |  |  |
| C50U U56G | 1.91e-05 ± 1.3e-06 | 829 ± 360 |  | < 1e-05 |  |  |  |
| A53U U56C C71U | 0.00121 ± 0.00019 | 4240 ± 1000 |  | 4.8e-05 ± 1.3e-05 |  | 0.000406 ± 9.1e-05 | 0.000903 ± 0.0002 |
| U54C A64U | 7.19e-05 ± 1e-05 |  |  |  |  | 5.96e-05 ± 1.3e-05 | 6.16e-05 ± 1.3e-05 |
| C50A C61G | 2.25e-05 ± 7e-06 |  |  |  |  |  |  |
| A53G A64C | 0.000207 ± 2.2e-05 | 1870 ± 470 |  |  | 5.95e-05 ± 9.6e-06 | 0.000109 ± 1.4e-05 | 0.000181 ± 1.9e-05 |
| A53G A64U | 0.000128 ± 1e-05 | 2590 ± 630 |  |  | 3.12e-05 ± 9.7e-06 | 5.65e-05 ± 1.1e-05 | 0.000103 ± 9.5e-06 |
| U47G C68A | 6.42e-05 ± 2.2e-05 |  |  | 4.97e-05 ± 2e-05 | 0.000121 ± 2.4e-05 | 9.07e-05 ± 1.6e-05 | 3.58e-05 ± 1.2e-05 |
| U47C C71U | 0.00356 ± 0.00095 | 1310 ± 520 | 0.000124 ± 1.4e-05 | 0.000184 ± 6.7e-05 | 0.00148 ± 0.0002 | 0.00219 ± 0.00045 | 0.00312 ± 0.00038 |
| U54C G63U | < 1e-05 |  |  |  | < 1e-05 |  |  |
| U46G C68G | 0.000103 ± 4e-06 | 678 ± 110 |  |  | 5.11e-05 ± 1.8e-05 | 7.97e-05 ± 1.8e-05 | 9.69e-05 ± 1.7e-05 |
| U46G C68A | 3.1e-05 ± 2.2e-06 |  |  |  |  |  | 3.1e-05 ± 1.1e-05 |
| U46G U65A | 0.00378 ± 0.00067 | 2420 ± 650 | 8.18e-05 ± 1.7e-05 | 0.000198 ± 4.8e-05 | 0.000703 ± 0.00015 | 0.00212 ± 0.00033 | 0.00296 ± 0.00047 |
| U45G U55A | 0.00686 ± 0.00089 | 1800 ± 330 | 0.000186 ± 4e-05 | 0.000513 ± 7.7e-05 | 0.00187 ± 0.00028 | 0.00385 ± 0.00058 | 0.00606 ± 0.0012 |
| U54A U65G | 0.00357 ± 0.0014 |  | 5.78e-05 ± 9.8e-06 | 0.000211 ± 3.9e-05 | 0.000927 ± 0.00015 | 0.001 ± 0.00025 | 0.00358 ± 0.00043 |

| Variant | kcat [1] [s⁻¹] | KM [2] [µM] | self-cleavage kobs at 40 uM GlcN6P [3] [s⁻¹] | self-cleavage kobs at 160 uM GlcN6P [4] [s⁻¹] | self-cleavage kobs at 640 uM GlcN6P [5] [s⁻¹] | self-cleavage kobs at 2500 uM GlcN6P [6] [s⁻¹] | self-cleavage kobs at 10000 uM GlcN6P [7] [s⁻¹] |
| --- | --- | --- | --- | --- | --- | --- | --- |
| U54A U65A | 0.00834 ± 0.0013 | 4300 ± 1100 | 0.000105 ± 2.7e-05 |  | 0.00105 ± 0.00019 | 0.00254 ± 0.00097 | 0.00595 ± 0.00078 |
| G51U A52C | < 1e-05 |  | < 1e-05 |  |  | < 1e-05 | < 1e-05 |
| U46C A48U | 8.27e-05 ± 1.4e-05 |  |  |  |  | 6.44e-05 ± 1.3e-05 | 6.9e-05 ± 9e-06 |
| A52G | 0.00319 ± 0.00046 | 4410 ± 790 | 3.36e-05 ± 1e-06 | 0.000104 ± 3.3e-06 | 0.000385 ± 9.1e-06 | 0.00127 ± 5.6e-05 | 0.0022 ± 6.2e-05 |
| A52U | 0.000465 ± 1.7e-05 | 2960 ± 200 |  | 2.13e-05 ± 1.9e-06 | 8.16e-05 ± 1.8e-06 | 0.000223 ± 4.8e-06 | 0.000355 ± 5.5e-06 |
| A52C | 2.8e-05 ± 8.9e-07 | 835 ± 150 | < 1e-05 | < 1e-05 | 1.03e-05 ± 3.3e-06 | 2.17e-05 ± 1.5e-06 | 2.56e-05 ± 1.3e-06 |
| G44U A64G | 0.000112 ± 2.4e-05 |  |  |  | 9.74e-05 ± 4.6e-05 | 5.94e-05 ± 1.4e-05 | 9.64e-05 ± 1.3e-05 |
| A53U U57C | 0.000173 ± 5.9e-06 | 1360 ± 210 |  |  |  | 0.000115 ± 2.1e-05 | 0.000151 ± 1.8e-05 |
| U45A U69A | 0.000153 ± 3.8e-05 |  | 5.69e-05 ± 1.3e-05 |  | 9.56e-05 ± 2.4e-05 | 0.000129 ± 3.7e-05 | 0.000167 ± 2.1e-05 |
| G51A U69G | 5.93e-05 ± 1.1e-05 |  |  | 4.53e-05 ± 1.5e-05 | 6.08e-05 ± 1.6e-05 | 5.96e-05 ± 1.5e-05 |  |
| U46A U56A | 0.001 ± 0.00013 | 1800 ± 490 |  |  | 0.000307 ± 7e-05 | 0.000533 ± 0.00015 | 0.000853 ± 0.00014 |
| G51A C67G | 2e-05 ± 6.5e-06 |  |  |  |  |  |  |
| C50U U57C | < 1e-05 |  | < 1e-05 | < 1e-05 |  |  |  |
| U47G C50U | 3.97e-05 ± 1.6e-06 | 433 ± 100 |  |  |  | 3.64e-05 ± 1.5e-05 | 3.69e-05 ± 1.2e-05 |
| G51U C58U | < 1e-05 |  |  | < 1e-05 |  |  | < 1e-05 |
| A48U C71U | 0.000562 ± 8.4e-05 | 1890 ± 590 |  |  | 0.000153 ± 2.3e-05 | 0.000338 ± 5.6e-05 | 0.000461 ± 5.6e-05 |
